Experimental data taken from patent publication US20250154240A1, “ANTI-HUMAN CXCL1 ANTIBODY” (CHIOME BIOSCIENCE INC., priority 2022, published 2025).

T1: human CXCL2 (Homo sapiens, UniProt P19875)
T1 sequence (P19875 35-107): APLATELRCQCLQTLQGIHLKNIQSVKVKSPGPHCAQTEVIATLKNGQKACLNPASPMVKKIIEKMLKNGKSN

T2: human CXCL3 (Homo sapiens, UniProt P19876)
T2 sequence (P19876 35-107): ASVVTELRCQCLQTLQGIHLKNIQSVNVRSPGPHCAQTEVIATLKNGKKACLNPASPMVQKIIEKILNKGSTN

B1: Hu5A-5E11: humanized antibody VH1/VL1; VH SEQ ID NO: 76, VL SEQ ID NO: 78 (antibody, V domains shown)
VH: QVQLVQSGAEVKKPGSSVKVSCKASGYAFSDYWMNWVRQAPGQGLEWIGQIYPGSGDTNYNAKFKGKGTITADKSTSTAYMELSSLRSEDTAVYYCARERDYDVAMDYWGQGTTVTVSS
VL: DIQMTQSPSSLSASVGDRVTITCKASQDINKYIAWFQQKPGKAPKLVIHYTSILQPGVPSRFSGSGSGTDYTFTISSLQPEDIATYYCLQYDNLPWTFGGGTKVEIK
B2: 5A-5E11: mouse monoclonal anti-HuCXCL1 antibody clone; VH SEQ ID NO: 17, VL SEQ ID NO: 21 (antibody, listed as Mus musculus, V domains shown)
VH: QVQLQQSGAELVRPGSSVKISCKASGYAFSDYWMNWVKQRPGQGLEWIGQIYPGDGDTNYNGKFKGKGTLTADKSSSTAYMQLNSLTSEDSAVYFCARERDYDVAMDYWGQGTSVTVSS
VL: DIQMTQSPSSLSASLGGKVTITCKASQDINKYIAWFQHKPGKGPRLVIHYTSILQPGIPSRFSGVGSGRDYSFSIRNLEPEDIATYYCLQYDNLPWTFGGGTKLEIK
B3: 4A-2F7: mouse monoclonal anti-HuCXCL1 antibody clone; VH SEQ ID NO: 9, VL SEQ ID NO: 13 (antibody, listed as Mus musculus, V domains shown)
VH: QVTLKESGPGILKPSQTLSLTCSFSGFSLSTSGMGVDWIRQPSGKGLEWLAHIWWDDDKYYNPSLKSQLTISKDTSRNQVFLKITSVDTADTATYYCARSYGYDMDYYAMDYWGQGTSVTVSS
VL: DIQMTQSPSSLSASLGERVSLTCRASQEISGYLSWLQQKPDGTIKRLIYAASTLDSGVPKRFSGSRSGSDYSLTISSLESEDFADYYCLQYASYPPWTFGGGTKLEIK
B4: 1A-7H10: mouse monoclonal anti-HuCXCL1 antibody clone; VH SEQ ID NO: 1, VL SEQ ID NO: 5 (antibody, listed as Mus musculus, V domains shown)
VH: QVQLKESGPVLVAPSQSLSITCSVSGFSSTTYGVHWVRQPPGQGLEWLGVIWAGGSTNYNSALMSRLSISKDNSKSQVFLKMNSLQTDDTAMYYCATQYHYPFAYWGQGTLVTVSA
VL: NIVMTQSPKSMSMSVGERVTLSCKASENVGIYVSWYQQKPEQSPKLMIYGASNRNTGVPDRFTGSGSATDFTLTISSVQAEDLADYYCGQSYSYPLTFGAGTKLELK
B5: 028-8-12: human antibody against CXCL1 from the human ADLib technique; VH SEQ ID NO: 25, VL SEQ ID NO: 29 (antibody, listed as Gallus gallus, V domains shown)
VH: EVQLLESGGGLVQPGGSLRLSCAASGFTFSELSMSWVRQAPGKGLEWVSAISGSGGSTYYADSVKGRFTISRDNSKNTLYLQMNSLRAEDTAVYYCAREGGRLEPYYYYYAMDVWGQGTPVTVSS
VL: DIQMTQSPSSLSASVGDRVTITCRASQSISDNLHWYQQKPGKAPKLLIYDASNLESGVPSRFSGSGSGTDFTLTINSLQPEDFATYYCQQYYSTPLTFGQGTKLEIK

test system: CXCR2-expressing cells; experiment: In vivo migration inhibitory activity test on CXCR2-expressing cells, OCUM-12 orthotopic transplantation (prevention model); parameters: species or system mouse; conditions: 400 μg/head intraperitoneally twice a week, 3 weeks; compared to hIgG1 antibody
Description: (§1) The stomachs after measurement of the tumor size in [3-1] above were excised and fixed overnight at room temperature with a 10% neutral buffered formalin solution (Wako Pure Chemical Industries, Ltd., Japan), followed by replacement with PBS. Then, paraffin embedding and section preparation were outsourced to Applied Medical Research Laboratory, Japan. The prepared gastric tumor sections were immunohistologically stained with an anti-CXCR2 antibody to evaluate in vivo CXCR2 cell migration inhibitory activity. The sections were deparaffinized and rehydrated, and then treated to inactivate endogenous peroxidase. After antigen activation treatment, the sections were blocked with PBS containing 2% skimmed milk and 0.1% Tween-20, and reacted overnight at 4° C. with an anti-CXCR2 antibody (Biorbyt) as a primary antibody, which had been diluted to 0.3 μg/mL with the blocking solution. After washing with PBS containing 0.1% Tween-20, the sections were reacted at room temperature for 1 hour with an HRP-labeled goat anti-rabbit IgG antibody (Abcam) as a secondary antibody. After washing with a washing solution, a simple stain DAB solution (5052, Nichirei Corporation, Japan) was used to cause color development. After images of the stained tissues were captured with an Explore (Olympus Corporation, Japan), imaging software CellSens (Olympus Corporation, Japan) was used to calculate CXCR2-positive cells per unit area.
Navarixin is among small molecular compounds that act on CXCR2 and inhibit CXCL1-CXCR2 signaling. […] Then, using a model with OCUM-12 orthotopic transplantation, the migration inhibition of CXCR2-expressing cells and antitumor activity were evaluated in vivo for Navarixin. As a vehicle, ultrapure water containing 20% 2-hydroxypropyl-β-cyclodextrin (FUJIFILM Wako Pure Chemical Corporation, Japan) was used. Navarixin (MedChemExpress) was dissolved in ultrapure water containing 20% 2-hydroxypropyl-β-cyclodextrin, and orally administered at a dose of 100 mg/kg/day in a schedule of once a day for 5 consecutive days, followed by a 2-day withdrawal.
as §1, with “after measurement were excised” for “after measurement of the tumor size in [3-1] above were excised”, “and 0.1% Tween-20 (hereinafter referred to as the blocking solution), and reacted” for “and 0.1% Tween-20, and reacted”, “been diluted 1667-fold with the” for “been diluted to 0.3 μg/mL with the”, “to calculate positive cells per” for “to calculate CXCR2-positive cells per”
The dose-response relationship between antibody dose and in vivo antitumor activity or CXCR2 migration inhibitory activity was evaluated in a xenograft prevention model with OCUM-12 orthotopic transplantation. A prevention model is a model designed to start antibody administration from the day following tumor transplantation. […]

Q: For B1, which “Migration of CXCR2-expressing cells (positive cells per unit area)” value is on record?
A: significantly suppress the migration of CXCR2-expressing cells

same assay, conditions: 20 mg/kg intraperitoneally twice a week, 3 weeks; compared to PBS or mouse IgG1

Q: For B2, which “Migration of CXCR2-expressing cells (CXCR2-positive cells per unit area in gastric tumor sections)” value is on record?
A: significantly suppress the migration of CXCR2-expressing cells

Q: For B3, which “Migration of CXCR2-expressing cells (CXCR2-positive cells per unit area in gastric tumor sections)” value is on record?
A: significantly suppress the migration of CXCR2-expressing cells

Q: Which “Migration of CXCR2-expressing cells (CXCR2-positive cells per unit area in gastric tumor sections)” value does the source give for B4 here?
A: significantly suppress the migration of CXCR2-expressing cells

Q: For B5, which “Migration of CXCR2-expressing cells (CXCR2-positive cells per unit area in gastric tumor sections)” value is on record?
A: significantly suppress the migration of CXCR2-expressing cells

same assay, conditions: prevention model

Q: How did the “Dose at which the migration suppressive effect tended to reach a plateau” value turn out when B1 was run?
A: ≥ 60 μg/head

test system: migration of HuCXCR2-expressing cells toward HuCXCL1; experiment: Migration assay (Boyden chamber chemotaxis) of HuCXCR2-expressing cells toward HuCXCL1; type: cell-based, human; conditions: HuCXCL1 200 ng per ml in lower chamber
Procedure: The 80 clones with neutralizing activity against HuCXCL1 were evaluated for their inhibitory activity against the migration of HuCXCR2-expressing cells toward HuCXCL1.
Cell chemotaxis was measured by Boyden chamber assay, and QCM Chemoraxis Cell Migration Assay (Sigma-Aldrich Corporation) was purchased and used as an assay kit. AequoScrenn/CXCR2 cells were used as HuCXCR2-expressing cells. An isotype control antibody and a goat anti-HuCXCL1 polyclonal antibody (hereinafter referred to as AF275) were purchased from R&D Systems and used.
The HuCXCR2-expressing cells were cultured overnight at 37° C. in a serum-free culture medium, and then suspended in the assay buffer and adjusted to 2×10^6 cells per ml. The upper chamber of a Boyden chamber was filled with the HuCXCR2-expressing cell suspension, while the lower chamber was filled with the assay buffer alone or a solution containing HuCXCL1 in an amount of 200 ng per ml with or without a purified antibody, followed by incubation overnight at 37° C.
After incubation, the upper chamber was washed with PBS, placed into a new lower chamber containing a Cell Detachment Solution (Sigma-Aldrich Corporation), and then allowed to stand at 37° C. for 30 minutes to detach the migrated cells adhered to the bottom of the membrane in the upper chamber.
The migrated cell suspension was supplemented with 4× Lysis Buffer (Sigma-Aldrich Corporation) in a volume of 75 μL per well and allowed to stand at room temperature for 20 minutes, followed by measurement of fluorescence at an excitation wavelength of 480 nm and a fluorescence wavelength of 520 nm. The above about 80 clones were screened and evaluated for their inhibitory activity against the migration of CXCR2 cells.

Q: With B2 as the molecule, how does the “CXCR2-expressing cell migration inhibitory activity Chemotaxis assay” value read?
A: ∘

Q: How did the “CXCR2-expressing cell migration inhibitory activity Chemotaxis assay” value turn out when B3 was run?
A: ∘

Q: How did the “CXCR2-expressing cell migration inhibitory activity Chemotaxis assay” value turn out when B4 was run?
A: ∘

Q: B5 was tested. Which “CXCR2-expressing cell migration inhibitory activity Chemotaxis assay” value did it give?
A: ∘

molecular target: T1, human CXCL2; experiment: Binding to human CXCL2; conditions: not given

Q: B2 was tested. Which “Binding to human CXCL2” value did it give?
A: also bind

Q: Which “Binding to human CXCL2” value does the source give for B3 here?
A: also bind

Q: How did the “Binding to human CXCL2” value turn out when B4 was run?
A: also bind

Q: Which “Binding to human CXCL2” value does the source give for B5 here?
A: also bind

molecular target: T2, human CXCL3; experiment: Binding to human CXCL3; conditions: not given

Q: Which “Binding to human CXCL3” value does the source give for B2 here?
A: also bind

Q: Which “Binding to human CXCL3” value does the source give for B3 here?
A: also bind

Q: How did the “Binding to human CXCL3” value turn out when B4 was run?
A: also bind

Q: How did the “Binding to human CXCL3” value turn out when B5 was run?
A: also bind
